Assay results from patent publication US20230050148A1 (SCHOLAR ROCK, published 2023).

T1: Cyno (cynomolgus monkey)
T1 chain: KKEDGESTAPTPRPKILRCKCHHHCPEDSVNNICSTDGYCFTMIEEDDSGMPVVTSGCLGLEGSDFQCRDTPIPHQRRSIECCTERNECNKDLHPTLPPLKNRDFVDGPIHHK


What was measured:
[1] = target: hLTBP1-proTGFβ1 in the cell-based potency assay (human, UniProt P01137 30-390; Q14766 347-1721); assay: cell-based or functional assay
[2] = target: hLTBP3-proTGFβ1 in the cell-based potency assay (human, UniProt P01137 30-390; Q9NS15 44-1303); assay: cell-based or functional assay
[3] = target: hGARP-proTGFβ1 in the cell-based potency assay (human, UniProt P01137 30-390; Q14392 20-662); assay: cell-based or functional assay
[4] = target: Rat (rat); assay: cell-based or functional assay
[5] = target: T1, Cyno; assay: cell-based or functional assay
[6] = target: Human (human); assay: cell-based or functional assay
[7] = target: LTBP:proTGFβ1 (human); assay: cell-based or functional assay
[8] = target: hLRRC33-proTGFβ1 in the cell-based potency assay (human, UniProt P01137 30-390; Q86YC3 19-651); assay: cell-based or functional assay
[9] = target: T2, recombinant human LRRC33-proTGFβ1 complex (human, UniProt P01137 30-390; Q86YC3 19-650); assay: SPR (Biacore 8K), biotinylated antigen on Biotin CAP chip, Fab 0.62-10 nM, 1:1 fit
T2 construct: C-terminally His-tagged LRRC33 ectodomain (sLRRC33); also called hLRRC33-proTGFβ1; hLRRC33

[10] = target: T3, recombinant human LTBP3-proTGFβ1 complex (human, UniProt Q9NS15 866-1039); assay: as above
T3 construct: range 866-1039; Purified large latent complex; also called hLTBP3-proTGFβ1; hLTBP3

[11] = target: T4, recombinant human LTBP1-proTGFβ1 complex (human, UniProt Q14766 873-1507); assay: as above
T4 construct: range 873-1507; Purified large latent complex (proTGFβ1 dimer disulfide-linked to one presenting molecule); biotinylated in BLI, MSD-SET and SPR assays; also called hLTBP1-proTGFβ1; hLTBP1

[12] = target: T5, recombinant human GARP-proTGFβ1 complex (human, UniProt P01137 30-390; Q14392 20-627); assay: as above
T5 construct: C-terminally His-tagged GARP ectodomain (sGARP) in complex with latent TGFβ1; also called hGARP-proTGFβ1; hGARP
T5 sequence (P01137 30-390, chain 1 of 2): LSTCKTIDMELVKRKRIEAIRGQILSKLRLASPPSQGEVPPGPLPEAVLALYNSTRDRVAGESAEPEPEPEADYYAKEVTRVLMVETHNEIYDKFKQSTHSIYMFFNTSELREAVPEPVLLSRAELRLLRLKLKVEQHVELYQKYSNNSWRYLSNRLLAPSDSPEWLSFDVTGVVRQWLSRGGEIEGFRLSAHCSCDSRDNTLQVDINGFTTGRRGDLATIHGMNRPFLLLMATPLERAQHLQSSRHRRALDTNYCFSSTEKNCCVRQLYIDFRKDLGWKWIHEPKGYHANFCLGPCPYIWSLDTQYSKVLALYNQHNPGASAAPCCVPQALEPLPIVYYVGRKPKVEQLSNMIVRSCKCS
T5 sequence (Q14392 20-627, chain 2 of 2): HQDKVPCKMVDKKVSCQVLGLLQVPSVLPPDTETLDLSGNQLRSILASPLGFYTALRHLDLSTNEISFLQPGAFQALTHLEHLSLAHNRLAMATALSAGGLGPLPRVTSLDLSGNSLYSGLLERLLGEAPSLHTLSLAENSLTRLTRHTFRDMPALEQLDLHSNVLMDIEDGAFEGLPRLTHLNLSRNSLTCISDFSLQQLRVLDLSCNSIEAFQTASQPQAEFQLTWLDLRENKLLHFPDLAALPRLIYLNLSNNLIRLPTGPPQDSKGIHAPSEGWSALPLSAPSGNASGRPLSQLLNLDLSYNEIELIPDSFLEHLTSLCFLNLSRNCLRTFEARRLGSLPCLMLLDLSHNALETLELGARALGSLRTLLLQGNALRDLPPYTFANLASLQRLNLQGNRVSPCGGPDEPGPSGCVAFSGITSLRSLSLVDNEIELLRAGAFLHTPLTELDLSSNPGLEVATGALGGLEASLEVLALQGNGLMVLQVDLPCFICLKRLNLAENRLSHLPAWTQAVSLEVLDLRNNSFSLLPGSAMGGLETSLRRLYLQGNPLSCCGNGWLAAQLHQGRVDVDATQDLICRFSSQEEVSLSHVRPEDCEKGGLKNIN

hLTBP1-proTGFβ1 in the cell-based potency assay, sequence (P01137 30-390 limits assumed, chain 1 of 2): as the sequence (P01137 30-390, chain 1 of 2) above
hLTBP1-proTGFβ1 in the cell-based potency assay, sequence (Q14766 347-1721 limits assumed, chain 2 of 2): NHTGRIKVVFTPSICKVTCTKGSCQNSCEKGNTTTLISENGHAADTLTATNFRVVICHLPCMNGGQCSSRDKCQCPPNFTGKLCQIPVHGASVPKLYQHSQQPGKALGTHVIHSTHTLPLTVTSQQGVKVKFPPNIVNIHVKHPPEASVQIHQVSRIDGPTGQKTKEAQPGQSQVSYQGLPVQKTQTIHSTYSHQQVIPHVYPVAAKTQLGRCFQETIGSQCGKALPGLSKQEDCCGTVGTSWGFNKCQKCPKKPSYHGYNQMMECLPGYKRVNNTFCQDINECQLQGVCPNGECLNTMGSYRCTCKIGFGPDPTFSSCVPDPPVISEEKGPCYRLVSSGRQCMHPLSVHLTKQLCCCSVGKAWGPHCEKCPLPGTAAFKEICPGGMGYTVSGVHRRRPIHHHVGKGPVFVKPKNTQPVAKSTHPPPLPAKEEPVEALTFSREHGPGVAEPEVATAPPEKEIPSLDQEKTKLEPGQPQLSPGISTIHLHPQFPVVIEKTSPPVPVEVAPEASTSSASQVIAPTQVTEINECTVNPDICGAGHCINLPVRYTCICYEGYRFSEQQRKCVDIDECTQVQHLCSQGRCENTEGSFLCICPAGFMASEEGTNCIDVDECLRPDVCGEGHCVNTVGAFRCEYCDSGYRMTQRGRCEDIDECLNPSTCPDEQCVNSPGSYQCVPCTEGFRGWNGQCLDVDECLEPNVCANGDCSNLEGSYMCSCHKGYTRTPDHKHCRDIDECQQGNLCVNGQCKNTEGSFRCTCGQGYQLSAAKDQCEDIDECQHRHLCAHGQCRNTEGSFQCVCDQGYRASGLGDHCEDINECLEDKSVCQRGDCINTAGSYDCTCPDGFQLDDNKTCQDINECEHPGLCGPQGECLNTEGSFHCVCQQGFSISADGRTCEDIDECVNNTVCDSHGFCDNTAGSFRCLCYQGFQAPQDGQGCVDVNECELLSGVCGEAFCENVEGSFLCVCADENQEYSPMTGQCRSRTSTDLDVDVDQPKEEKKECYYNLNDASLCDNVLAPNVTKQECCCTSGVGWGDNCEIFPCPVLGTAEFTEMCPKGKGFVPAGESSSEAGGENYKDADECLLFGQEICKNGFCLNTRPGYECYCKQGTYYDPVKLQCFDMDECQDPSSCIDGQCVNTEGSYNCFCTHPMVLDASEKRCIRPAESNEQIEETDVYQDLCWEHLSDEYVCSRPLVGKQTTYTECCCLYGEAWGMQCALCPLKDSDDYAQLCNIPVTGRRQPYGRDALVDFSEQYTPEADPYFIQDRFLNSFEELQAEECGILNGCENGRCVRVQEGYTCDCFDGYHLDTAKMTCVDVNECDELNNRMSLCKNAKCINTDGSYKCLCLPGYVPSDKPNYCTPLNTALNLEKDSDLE
hLRRC33-proTGFβ1 in the cell-based potency assay, sequence (P01137 30-390 limits assumed, chain 1 of 2): as the sequence (P01137 30-390, chain 1 of 2) above
hLRRC33-proTGFβ1 in the cell-based potency assay, sequence (Q86YC3 other isoform, or with tags, fused parts or gaps limits assumed, chain 2 of 2): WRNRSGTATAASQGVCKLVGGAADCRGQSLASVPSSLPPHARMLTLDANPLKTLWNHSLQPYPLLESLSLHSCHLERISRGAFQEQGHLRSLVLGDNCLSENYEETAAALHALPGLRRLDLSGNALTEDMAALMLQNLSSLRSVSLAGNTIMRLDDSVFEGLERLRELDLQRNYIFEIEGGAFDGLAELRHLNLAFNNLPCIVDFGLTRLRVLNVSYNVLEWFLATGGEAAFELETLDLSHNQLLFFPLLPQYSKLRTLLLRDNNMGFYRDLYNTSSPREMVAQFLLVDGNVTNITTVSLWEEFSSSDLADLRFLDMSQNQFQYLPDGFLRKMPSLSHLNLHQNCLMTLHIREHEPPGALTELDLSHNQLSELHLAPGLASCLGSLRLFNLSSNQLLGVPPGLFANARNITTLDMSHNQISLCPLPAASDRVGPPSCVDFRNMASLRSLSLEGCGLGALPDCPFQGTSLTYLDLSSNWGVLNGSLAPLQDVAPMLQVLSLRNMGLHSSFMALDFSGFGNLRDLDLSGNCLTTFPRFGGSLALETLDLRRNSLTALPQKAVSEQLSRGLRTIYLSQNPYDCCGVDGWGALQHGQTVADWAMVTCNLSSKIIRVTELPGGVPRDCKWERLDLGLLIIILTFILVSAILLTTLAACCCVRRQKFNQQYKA
T4 sequence (chain, as listed by the source limits assumed, chain 1 of 2): as the sequence (P01137 30-390, chain 1 of 2) above
T4 sequence (Q14766 873-1507 limits assumed, chain 2 of 2): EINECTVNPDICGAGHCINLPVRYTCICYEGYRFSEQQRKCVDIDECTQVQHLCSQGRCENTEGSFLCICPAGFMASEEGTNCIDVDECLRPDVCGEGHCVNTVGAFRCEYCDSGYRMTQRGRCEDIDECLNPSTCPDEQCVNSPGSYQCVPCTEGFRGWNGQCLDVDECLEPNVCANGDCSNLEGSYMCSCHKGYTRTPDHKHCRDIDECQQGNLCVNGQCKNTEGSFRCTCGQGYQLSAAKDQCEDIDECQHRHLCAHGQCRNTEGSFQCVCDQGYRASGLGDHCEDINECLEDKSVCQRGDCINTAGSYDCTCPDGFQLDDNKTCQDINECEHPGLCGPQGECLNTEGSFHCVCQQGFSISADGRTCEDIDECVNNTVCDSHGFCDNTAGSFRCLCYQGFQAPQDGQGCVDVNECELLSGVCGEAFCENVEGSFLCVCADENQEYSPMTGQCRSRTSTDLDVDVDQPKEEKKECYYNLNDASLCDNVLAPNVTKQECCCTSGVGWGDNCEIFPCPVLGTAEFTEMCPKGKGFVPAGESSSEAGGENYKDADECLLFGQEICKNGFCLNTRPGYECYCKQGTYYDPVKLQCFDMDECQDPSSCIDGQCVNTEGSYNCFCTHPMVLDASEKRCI

| Binder | IC50, reporter cell assay of TGFβ1 activation [1] [nM] | IC50, reporter cell assay of TGFβ1 activation [2] [nM] | IC50, reporter cell assay of TGFβ1 activation [3] [nM] | IC50, reporter cell assay of TGFβ1 activation [8] [nM] | also measured |
| --- | --- | --- | --- | --- | --- |
| Ab4 (antibody, V domains shown) VH: EVQLVESGGGLVQPGGSLRLSCAASGFTFSSYSMNWVRQAPGKGLEWVSYISSSSSTIYYADSVKGRFTISRDNAKNSLYLQMNSLRAEDTAVYYCARGVLDYGDMLDPWGQGTLVTVSS VL: DIQMTQSPSSLSASVGDRVTITCQASQDITNYLNWYQQKPGKAPKLLIYDASNLETGVPSRFSGSGSGTDFTFTISSLQPEDIATYYCQQADNHPPWTFGGGTKVEIK | 5.2 | 5.6 | 0.8 |  |  |
| Ab6 (antibody, V domains shown) VH: EVQLVESGGGLVQPGGSLRLSCTASGFTFSSFSMDWVRQAPGKGLEWVSYISPSADTIYYADSVKGRFTISRDNAKNTLYLQMNSLRAEDTAVYYCARGVLDYGDMLMPWGQGTLVTVSS VL: DIQMTQSPSSLSASVGDRVTITCQASQDITNYLNWYQQKPGKAPKLLIYDASNLETGVPSRFSGSGSGTDFTFTISSLQPEDIATYYCQQADNHPPWTFGGGTKVEIKR |  |  |  |  | IC50 (inhibition of latent TGFβ1 activation, LN229 transfectants with CAGA12 reporter cells) [4]: 1.11 nM; IC50 (inhibition of latent TGFβ1 activation, LN229 transfectants with CAGA12 reporter cells) [5]: 1.02 nM; IC50 (inhibition of latent TGFβ1 activation, LN229 transfectants with CAGA12 reporter cells) [6]: 1.07 nM; IC50 (read off the curve); percent TGFβ activity, LN229 / CAGA12 luciferase reporter co-culture [7]: ~1 nM |
| Ab5 (antibody, V domains shown) VH: EVQLVESGGGLVQPGGSLRLSCAASGFTFSSFSMDWVRQAPGKGLEWVSYISPDASTIYYADSVKGRFTISRDNAKNSLYLQMNSLRAEDTAVYYCARGVLDYGDMLDPWGQGTLVTVSS VL: DIQMTQSPSSLSASVGDRVTITCQASQDITNYLNWYQQKPGKAPKLLIYDASNLETGVPSRFSGSGSGTDFTFTISSLQPEDIATYYCQQADNHPPWTFGGGTKVEIK | 1.3 |  | 0.1 | 0.6 |  |
| Ab6 Fab (Fab, V domains shown, also called Fab fragment of Ab6) VH: EVQLVESGGGLVQPGGSLRLSCTASGFTFSSFSMDWVRQAPGKGLEWVSYISPSADTIYYADSVKGRFTISRDNAKNTLYLQMNSLRAEDTAVYYCARGVLDYGDMLMPWGQGTLVTVSS VL: DIQMTQSPSSLSASVGDRVTITCQASQDITNYLNWYQQKPGKAPKLLIYDASNLETGVPSRFSGSGSGTDFTFTISSLQPEDIATYYCQQADNHPPWTFGGGTKVEIK |  |  |  |  | Kd [9]: 0.145 nM; koff [9]: 0.000123 s⁻¹; kon [9]: 845000 M⁻¹ s⁻¹; Kd [10]: 0.488 nM; koff [10]: 0.000831 s⁻¹; kon [10]: 1.7e+06 M⁻¹ s⁻¹; Kd [11]: 0.124 nM; koff [11]: 0.000255 s⁻¹; kon [11]: 2.05e+06 M⁻¹ s⁻¹; Kd [12]: 0.104 nM; koff [12]: 0.000218 s⁻¹; kon [12]: 2.1e+06 M⁻¹ s⁻¹ |
| Ab21 (antibody, V domains shown) VH: EVQLVESGGGLVQPGGSLRLSCAASGFTFSSFSMDWVRQAPGKGLEWVSYISPDASTIYYADSVKGRFTISRDNAKNSLYLQMNSLRAEDTAVYYCARGVLDYGDMLDPWGQGTLVTVSS VL: DIQMTQSPSSLSASVGDRVTITCQASQDITNYLNWYQQKPGKAPKLLIYDASNLETGVPSRFSGSGSGTDFTFTISSLQPEDIATYYCQQADNHPPWTFGGGTKVEIK | 1.6 | 0.8 | 0.4 | 0.6 |  |
| Ab23 (antibody, V domains shown) VH: EVQLVESGGGLVQPGGSLRLSCAASGFTFSSFSMNWVRQAPGKGLEWVSYISPSADTIYYADSVKGRFTISRDNAKNTLYLQMNSLRAEDTAVYYCARGVLDYGDMLDPWGQGTLVTVSS VL: DIQMTQSPSSLSASVGDRVTITCQASQDITNYLNWYQQKPGKAPKLLIYDASNLETGVPSRFSGSGSGTDFTFTISSLQPEDIATYYCQQADNHPPWTFGGGTKVEIK | 0.8 | 0.9 | 0.3 | 0.6 |  |
| Ab33 (antibody, V domains shown) VH: EVQLVESGGGLVQPGGSLRLSCAASGFTFSSFSMNWVRQAPGKGLEWVSYISPSADTIYYADSVKGRFTISRDNAKNTLYLQMNSLRAEDTAVYYCAHGVLDYGDMLDPWGQGTLVTVSS VL: DIQMTQSPSSLSASVGDRVTITCQASQDITNYLNWYQQKPGKAPKLLIYDASNLETGVPSRFSGSGSGTDFTFTISSLQPEDIATYYCQQADNHPPWTFGGGTKVEIK | 1.6 | 1.1 | 0.2 | 0.7 |  |
| Ab26 (antibody, V domains shown) VH: EVQLVESGGGLVQPGGSLRLSCAASGFTFSSFSMDWVRQAPGKGLEWVSYISPDASTIYYADSVKGRFTISRDNAKNTLYLQMNSLRAEDTAVYYCARGVLDYGDMLDPWGQGTLVTVSS VL: DIQMTQSPSSLSASVGDRVTITCQASQDITNYLNWYQQKPGKAPKLLIYDASNLETGVPSRFSGSGSGTDFTFTISSLQPEDIATYYCQQADNHPPWTFGGGTKVEIK | 0.7 | 0.7 | 0.3 | 0.3 |  |
| Ab29 (antibody, V domains shown) VH: EVQLVESGGGLVQPGRSLRLSCAASGFTFSSFAMNWVRQAPGKGLEWVSYISPDASTIYYAGSVKGRFTISRDNAKNSLYLQMNSLRAEDTAVYYCVRAVLDYGDMLDPWGQGTLVTVSS VL: DIQMTQSPSSLSASVGDRVTITCQASQDITNYLNWYQQKPGKAPKLLIYDASNLETGVPSRFSGSGSGTDFTFTISSLQPEDIATYYCQQADNHPPWTFGGGTKVEIK | 0.5 | 0.8 | 0.3 | 0.5 |  |
| Ab25 (antibody, V domains shown) VH: EVQLVESGGGLVQPGGSLRLSCAASGFTFGSFSMDWVRQAPGKGLEWVSYISPDASTIYYADSVKGRFTISRDNAKNSLYLQMNSLRAEDTAVYYCARGVLDYGDMLDPWGQGTLVTVSS VL: DIQMTQSPSSLSASVGDRVTITCQASQDITNYLNWYQQKPGKAPKLLIYDASNLETGVPSRFSGSGSGTDFTFTISSLQPEDIATYYCQQADNHPPWTFGGGTKVEIK | 6.1 | 0.51 | 0.4 | 0.7 |  |
